Data from article PMC3515690 (Nature structural & molecular biology, 2012).

How the values were obtained:
Assay in all cases: cross-linking
[1] = target: T1, Atg7 with a Gly-Gly-Ser-Gly insertion after Leu291 (S. cerevisiae, UniProt P38862 1-630, Gly-Gly-Ser-Gly insertion after Atg7’s Leu291)
T1 sequence (looked up): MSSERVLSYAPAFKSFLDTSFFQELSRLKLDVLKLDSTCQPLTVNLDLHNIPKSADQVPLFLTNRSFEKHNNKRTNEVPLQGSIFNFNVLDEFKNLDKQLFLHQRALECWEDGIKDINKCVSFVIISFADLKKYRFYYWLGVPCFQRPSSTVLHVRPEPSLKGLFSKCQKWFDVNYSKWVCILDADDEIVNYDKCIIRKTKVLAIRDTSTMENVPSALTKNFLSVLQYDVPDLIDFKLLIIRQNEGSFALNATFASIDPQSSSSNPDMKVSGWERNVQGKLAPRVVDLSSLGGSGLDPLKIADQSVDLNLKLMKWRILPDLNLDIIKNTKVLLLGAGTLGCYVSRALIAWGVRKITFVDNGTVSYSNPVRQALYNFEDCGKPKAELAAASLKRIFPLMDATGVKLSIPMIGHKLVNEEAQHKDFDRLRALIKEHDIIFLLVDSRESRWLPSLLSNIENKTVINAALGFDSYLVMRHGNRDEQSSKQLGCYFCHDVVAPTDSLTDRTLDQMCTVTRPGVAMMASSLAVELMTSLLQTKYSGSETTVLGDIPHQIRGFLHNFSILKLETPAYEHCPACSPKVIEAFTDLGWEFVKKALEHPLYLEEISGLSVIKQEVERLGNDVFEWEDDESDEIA

[2] = target: T2, Atg7 D47A N50A K53A (S. cerevisiae, UniProt P38862 1-630, D47A | N50A | K53A)
T2 sequence (looked up): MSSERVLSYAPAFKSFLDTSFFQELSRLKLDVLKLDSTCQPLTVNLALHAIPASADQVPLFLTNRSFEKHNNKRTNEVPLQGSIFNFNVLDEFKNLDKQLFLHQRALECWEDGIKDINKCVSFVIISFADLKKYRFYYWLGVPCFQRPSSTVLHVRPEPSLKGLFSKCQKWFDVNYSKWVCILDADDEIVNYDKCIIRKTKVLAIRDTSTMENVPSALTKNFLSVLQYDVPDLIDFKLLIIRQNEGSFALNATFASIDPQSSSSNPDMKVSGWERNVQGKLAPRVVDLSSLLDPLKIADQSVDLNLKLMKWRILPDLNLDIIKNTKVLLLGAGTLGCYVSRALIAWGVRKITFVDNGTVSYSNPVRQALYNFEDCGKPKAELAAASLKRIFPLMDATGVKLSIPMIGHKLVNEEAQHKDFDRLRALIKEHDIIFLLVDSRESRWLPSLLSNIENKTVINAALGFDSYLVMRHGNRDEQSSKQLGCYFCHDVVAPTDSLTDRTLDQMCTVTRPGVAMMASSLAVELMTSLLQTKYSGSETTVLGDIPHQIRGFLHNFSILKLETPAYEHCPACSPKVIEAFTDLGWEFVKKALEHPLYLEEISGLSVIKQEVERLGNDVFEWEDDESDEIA

[3] = target: T3, Atg7 with residues 290–294 deleted (S. cerevisiae, UniProt P38862 1-630, deletion of residues 290–294)
T3 sequence (looked up): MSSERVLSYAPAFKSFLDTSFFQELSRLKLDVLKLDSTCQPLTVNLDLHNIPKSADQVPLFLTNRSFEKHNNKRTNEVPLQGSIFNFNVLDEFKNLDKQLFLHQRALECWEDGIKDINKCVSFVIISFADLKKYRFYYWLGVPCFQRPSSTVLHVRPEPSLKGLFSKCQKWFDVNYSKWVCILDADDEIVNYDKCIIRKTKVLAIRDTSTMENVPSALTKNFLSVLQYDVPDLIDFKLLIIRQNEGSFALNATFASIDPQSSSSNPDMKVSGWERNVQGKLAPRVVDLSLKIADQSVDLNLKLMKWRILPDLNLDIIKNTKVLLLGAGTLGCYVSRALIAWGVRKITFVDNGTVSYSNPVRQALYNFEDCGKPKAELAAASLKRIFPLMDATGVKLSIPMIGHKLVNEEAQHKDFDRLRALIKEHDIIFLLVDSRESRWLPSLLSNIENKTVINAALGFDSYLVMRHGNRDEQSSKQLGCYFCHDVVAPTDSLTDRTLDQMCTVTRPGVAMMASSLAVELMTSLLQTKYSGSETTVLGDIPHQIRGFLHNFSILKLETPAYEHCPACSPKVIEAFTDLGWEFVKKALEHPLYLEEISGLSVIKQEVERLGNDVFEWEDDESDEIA

Measured: binding result

B1: Atg3(C41A C76A C83A) (enzyme, S. cerevisiae)
chain: MIRSTLSSWREYLTPITHKSTFLTTGQITPEEFVQAGDYLAHMFPTWKWNEESSDISYRDFLPKNKQFLIIRKVPADKRAEQAVEVEGPDVIMKGFAEDGDEDDVLEYIGSETEHVQSTPAGGTKDSSIDDIDELIQDMEIKEEDENDDTEEFNAKGGLAKDMAQERYYDLYIAYSTSYRVPKMYIVGFNSNGSPLSPEQMFEDISADYRTKTATIEKLPFYKNSVLSVSIHPCKHANVMKILLDKVRVVRQRRRKELQEEQELDGVGDWEDLQDDIDDSLRVDQYLIVFLKFITSVTPSIQHDYTMEGW
modifications: Cys234 reacted with bismaleimidoethane (BMOE)
binds: all assays above
